This is an account of results in patent publication US20180251562A1 (XOMA US, published 2018).

The target of test [1] is T1, Recombinant human insulin receptor (B form) ECD (R&D Systems) (human, UniProt P06213 28-956, limits assumed).
T1 construct: extracellular domain; also called INSR-ECD; h-INSR
The experiment in a line: SPR (Biacore 2000), INSR-ECD immobilised, purified Fab injected, 1:1 fit [cont'd]. (In general: In SPR one partner is held on a chip, and binding of the other changes the refractive index at the surface.)

Test [2] has as its target T1, Recombinant human insulin receptor (B …). The experiment in a line: SPR (Biacore 2000), INSR-ECD immobilised; relative to 247.2.018 Fab.
For test [3] the target is unchanged. The experiment in a line: SPR (Biacore 2000), INSR-ECD immobilised, purified Fab injected, 1:1 fit.
In test [4] the target is T2, human insulin receptor (INSR) on CHOK1 cells (human, UniProt P06213 28-1382).
T2 construct: whole, on cells; CHOK1 cells over-expressing human INSR; also called human INSR; hINSR
The experiment in a line: binding to CHO cells expressing human INSR; 1st column headed CHO Human INSR; quantity and unit not printed [cont'd].

The target in test [5] is T3, rat insulin receptor (INSR) on CHOK1 cells (rat, UniProt P15127 27-1383).
T3 construct: whole, on cells; CHOK1 cells over-expressing rat INSR; also called rat INSR ortholog
Briefly: binding to CHO cells expressing rat INSR; 2nd column headed CHO Rat INSR (the 1st column's numbers with more digits); quantity and unit not printed [cont'd].

In test [6] the target is T2, human insulin receptor (INSR) on CHOK1 …. Briefly: binding to CHO cells expressing human INSR; 2nd column headed CHO Human INSR; quantity and unit not printed [cont'd].
The target of test [7] is T4, cynomolgus insulin receptor (INSR) on CHOK1 cells (cyno, UniProt A0A7N9D6H3 48-1390).
T4 construct: whole, on cells; CHOK1 cells over-expressing cyno INSR; also called cynomologous INSR ortholog; monkey INSR
The experiment in a line: binding to CHO cells expressing cyno INSR; 1st column headed CHO Cyno INSR; quantity and unit not printed [cont'd].

In test [8] the target is T4, cynomolgus insulin receptor (INSR) on …. The experiment in a line: binding to CHO cells expressing cyno INSR; 2nd column headed CHO Cyno INSR (same numbers as the 1st); quantity and unit not printed [cont'd].
Test [9] deals with T3, rat insulin receptor (INSR) on CHOK1 …. Briefly: binding to CHO cells expressing rat INSR; 1st column headed CHO Rat INSR; quantity and unit not printed [cont'd].

B1: RHF.15.05896.006 (Fab, V domains shown)
VH: EVQLVETGGGVVQPGRSLRLSCAASGFKFSSYAMHWVRQAPGKGLEWVAVISYSGDNKYYADSVKGRFTISRDNSKNTLYLQMNSLRAEDTAVYYCARHEWGFGFDRWGQGTTVTVSS
VL: DVVMTQSPLSLPVTLGQPASISCRSSQSLVYGDGNTYLNWFQQRPGQSPRRLIYKVSNRDSGVPDRFSGSGSGTEFTLKISRVEAEDVGVYFCMQGTYWPGTFGGGTKLEIKR
notes: Untagged Fab
Regarding B1, in test [1], the koff is 0.00024 s⁻¹ and the kon stood at 130000 M⁻¹ s⁻¹. For the same molecule, the “Fold KD Improvement” value in test [2] was determined as 5.2 fold. Also, in [3], the Kd came to 1.9 nM. Moreover, the “CHO Human INSR” value in test [4] was 2.95.

B2: RHF.15.05896.068 (Fab, V domains shown)
VH: EVQLVETGGGVVQPGRSLRLSCAASGFKFSSYAMHWVRQAPGKGLEWVAVISYSGGNKYYADSVKGRFTISRDNSKNTLYLQMNSLRAEDTAVYYCARHEWGFGYDYWGQGTTVTVSS
VL: DVVMTQSPLSLPVTLGQPASISCRSSQSLVYGDGNTYLNWFQQRPGQSPRRLIYKVSNRDSGVPDRFSGSGSGTEFTLKISRVEAEDVGVYFCMQGTYWPGTFGGGTKLEIKR
notes: Untagged Fab
Consider B2, for which the koff in test [1] came to 0.00038 s⁻¹. Further, in test [1], the kon worked out at 320000 M⁻¹ s⁻¹. For the same molecule, the “CHO Rat INSR” value in [5] and in test [9] was 0.533 each time. Also, the results for the “CHO Human INSR” value in test [6] and in [4] were 0.762 and 1.25, respectively. Besides, the “Fold KD Improvement” value in test [2] is 8.3 fold. For the same molecule, the “CHO Cyno INSR” value in [7] and in test [8] was 0.854 in each case. In addition, in test [3], the Kd was determined as 1.2 nM.

B3: RHF.15.05896.015 (Fab, V domains shown)
VH: EVQLVETGGGVVQPGRSLRLSCAASGFKFSSYAMHWVRQAPGKGLEWVAVISYSGRNKYYADSVKGRFTISRDNSKNTLYLQMNSLRAEDTAVYYCARHEWGFGQDYWGQGTTVTVSS
VL: DVVMTQSPLSLPVTLGQPASISCRSSQSLVYGDGNTYLNWFQQRPGQSPRRLIYKVSNRDSGVPDRFSGSGSGTEFTLKISRVEAEDVGVYFCMQGTYWPGTFGGGTKLEIKR
notes: Untagged Fab
Regarding B3, in [1], the koff turned out to be 0.00025 s⁻¹ and the kon stood at 84000 M⁻¹ s⁻¹. The “Fold KD Improvement” value in test [2] is 3.3 fold. In addition, the Kd in test [3] amounted to 3 nM. The “CHO Human INSR” value in [4] turned out to be 4.35.

B4: RHF.15.05896.036 (Fab, V domains shown)
VH: EVQLVETGGGVVQPGRSLRLSCAASGFKFSSYAMHWVRQAPGKGLEWVAVISYSGGNKYYADSVKGRFTISRDNSKNTLYLQMNSLRAEDTAVYYCARHEWGFGFDLWGQGTTVTVSS
VL: DVVMTQSPLSLPVTLGQPASISCRSSQSLVYGDGNTYLNWFQQRPGQSPRRLIYKVSNRDSGVPDRFSGSGSGTEFTLKISRVEAEDVGVYFCMQGTYWPGTFGGGTKLEIKR
notes: Untagged Fab
For B4, in [1], the koff was 0.00022 s⁻¹ and the kon is 120000 M⁻¹ s⁻¹. Also, in [2], the “Fold KD Improvement” value amounted to 5.4 fold. Moreover, the Kd in test [3] was 1.8 nM. The “CHO Human INSR” value in test [4] was determined as 3.04.

B5: RHF.15.05896.044 (Fab, V domains shown)
VH: EVQLVETGGGVVQPGRSLRLSCAASGFKFSSYAMHWVRQAPGKGLEWVAVISNSGSNKYYADSVKGRFTISRDNSKNTLYLQMNSLRAEDTAVYYCARHEWGFGFDKWGQGTTVTVSS
VL: DVVMTQSPLSLPVTLGQPASISCRSSQSLVYGDGNTYLNWFQQRPGQSPRRLIYKVSNRDSGVPDRFSGSGSGTEFTLKISRVEAEDVGVYFCMQGTYWPGTFGGGTKLEIKR
notes: Untagged Fab
For B5, in test [1], the koff was determined as 0.00017 s⁻¹ and the kon came out at 130000 M⁻¹ s⁻¹. For the same molecule, the “Fold KD Improvement” value in test [2] is 7.4 fold. Besides, the dissociation constant (Kd) in test [3] was 1.3 nM. In addition, in [4], the “CHO Human INSR” value came out at 2.52.

B6: RHF.15.05896.032 (Fab, V domains shown)
VH: EVQLVETGGGVVQPGRSLRLSCAASGFKFSSYAMHWVRQAPGKGLEWVAVISYSGENKYYADSVKGRFTISRDNSKNTLYLQMNSLRAEDTAVYYCARHEWGFGFDEWGQGTTVTVSS
VL: DVVMTQSPLSLPVTLGQPASISCRSSQSLVYGDGNTYLNWFQQRPGQSPRRLIYKVSNRDSGVPDRFSGSGSGTEFTLKISRVEAEDVGVYFCMQGTYWPGTFGGGTKLEIKR
notes: Untagged Fab
For B6, in test [1], the koff is 0.0001 s⁻¹ and the kon was determined as 91000 M⁻¹ s⁻¹. Further, in [2], the “Fold KD Improvement” value is 8.6 fold. In addition, the Kd in [3] is 1.1 nM. Moreover, the “CHO Human INSR” value in [4] was found to be 3.1.

B7: RHF.15.05896.020 (Fab, V domains shown)
VH: EVQLVETGGGVVQPGRSLRLSCAASGFKFSSYAMHWVRQAPGKGLEWVAVISWSGSNKYYADSVKGRFTISRDNSKNTLYLQMNSLRAEDTAVYYCARHEWGFGFDEWGQGTTVTVSS
VL: DVVMTQSPLSLPVTLGQPASISCRSSQSLVYGDGNTYLNWFQQRPGQSPRRLIYKVSNRDSGVPDRFSGSGSGTEFTLKISRVEAEDVGVYFCMQGTYWPGTFGGGTKLEIKR
notes: Untagged Fab
On to B7, for which the koff in test [1] amounted to 0.00017 s⁻¹. The kon in test [1] is 110000 M⁻¹ s⁻¹. Besides, the “CHO Rat INSR” value is 0.66 in test [5] and 0.661 in [9]. The “CHO Human INSR” value was found to be 0.838 in [6] and 1.96 in [4]. Also, in [2], the “Fold KD Improvement” value stood at 6.4 fold. Also, the “CHO Cyno INSR” value in test [7] and in test [8] was 0.911 in each case. Besides, the Kd in [3] was 1.5 nM.

B8: RHF.15.05896.056 (Fab, V domains shown)
VH: EVQLVETGGGVVQPGRSLRLSCAASGFKFSSYAMHWVRQAPGKGLEWVAVISYGGSNKYYADSVKGRFTISRDNSKNTLYLQMNSLRAEDTAVYYCARHEWGFGFDEWGQGTTVTVSS
VL: DVVMTQSPLSLPVTLGQPASISCRSSQSLVYGDGNTYLNWFQQRPGQSPRRLIYKVSNRDSGVPDRFSGSGSGTEFTLKISRVEAEDVGVYFCMQGTYWPGTFGGGTKLEIKR
notes: Untagged Fab
In the case of B8, in test [1], the koff turned out to be 0.00017 s⁻¹ and the kon was found to be 120000 M⁻¹ s⁻¹. In addition, the “Fold KD Improvement” value in test [2] was found to be 6.9 fold. Moreover, the Kd in test [3] stood at 1.4 nM. The “CHO Human INSR” value in test [4] came to 2.26.

The term koff denotes the first-order rate constant of dissociation. As a reminder, the kon is a measure of how fast the partners come together. Broadly, the Kd is the constant that tells how readily two partners part at equilibrium.
